Assay results: patent US11623960 (dated 2023)

B1: R2C9-11 (antibody, V domains shown)
VH: QVQLQQPGAELVKPGASVKLSCKASGYTFTSYWMHWVKQRPGQGLEWIGEINPSNGRTNYNEKFKSKATLTVDKSSSTAYMQLSSLTSEDSAVYYCANLYFDVWGAGTTVTVSS
VL: DIVMTQSPSSLSVSAGEKVTMSCKSSQNLLNSGNQKYYLAWYQQKPGQPPKLLIYGASIRESGVPDRFIGSGSGTDFTLTISSVQAEDLAVYFCQSDHSYPYTFGGGTKLEIK
B2: R2C7-1 (antibody, V domains shown)
VH: EVQLQQSGPELVKPGASVKISCKASGYSFTDYFINWVIQRHGKSLEWVGRINPYNGGSFYNQKFKDKATLTVDKSSNIAHMELRSLASEDSAIYYCARSGGNGYDYWGQGTTLTVSS
VL: DIVMTQAAPSVPVIPGESVSISCRSSKSLLHSNGNTYLYWFLQRPGQSPQLLIYRMSNLASGVPDRFSGSGSGTAFTLRISRVEAEDVGVYYCMQHLEYPYTFGGGTKVEIK

Columns and labels:
Test in all cases: SPR
[1] = target: T1, VEGFR2 (KDR) IgD6-7 (human, UniProt P35968)
T1 chain: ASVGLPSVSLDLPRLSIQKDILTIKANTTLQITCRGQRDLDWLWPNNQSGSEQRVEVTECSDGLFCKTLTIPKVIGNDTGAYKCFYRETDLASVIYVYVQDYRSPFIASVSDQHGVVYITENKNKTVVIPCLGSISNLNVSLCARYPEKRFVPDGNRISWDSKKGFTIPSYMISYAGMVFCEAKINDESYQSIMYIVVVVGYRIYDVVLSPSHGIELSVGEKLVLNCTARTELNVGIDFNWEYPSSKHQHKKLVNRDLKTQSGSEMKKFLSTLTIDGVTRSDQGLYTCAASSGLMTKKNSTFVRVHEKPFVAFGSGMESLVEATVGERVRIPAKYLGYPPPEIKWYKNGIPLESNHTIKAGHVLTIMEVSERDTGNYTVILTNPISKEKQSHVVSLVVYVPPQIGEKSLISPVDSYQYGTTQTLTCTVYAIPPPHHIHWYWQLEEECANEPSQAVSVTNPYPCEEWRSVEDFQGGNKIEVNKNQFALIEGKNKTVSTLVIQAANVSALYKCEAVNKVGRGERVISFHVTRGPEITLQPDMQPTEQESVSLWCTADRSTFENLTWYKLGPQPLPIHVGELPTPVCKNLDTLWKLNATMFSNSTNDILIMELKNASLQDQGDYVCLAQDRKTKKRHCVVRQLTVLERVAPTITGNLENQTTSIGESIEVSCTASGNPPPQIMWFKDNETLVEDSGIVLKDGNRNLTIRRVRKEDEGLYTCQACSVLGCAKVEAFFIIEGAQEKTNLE

[2] = target: T2, VEGFR3 (Flt-4) IgD4-7 (human, UniProt P35916)
T2 chain: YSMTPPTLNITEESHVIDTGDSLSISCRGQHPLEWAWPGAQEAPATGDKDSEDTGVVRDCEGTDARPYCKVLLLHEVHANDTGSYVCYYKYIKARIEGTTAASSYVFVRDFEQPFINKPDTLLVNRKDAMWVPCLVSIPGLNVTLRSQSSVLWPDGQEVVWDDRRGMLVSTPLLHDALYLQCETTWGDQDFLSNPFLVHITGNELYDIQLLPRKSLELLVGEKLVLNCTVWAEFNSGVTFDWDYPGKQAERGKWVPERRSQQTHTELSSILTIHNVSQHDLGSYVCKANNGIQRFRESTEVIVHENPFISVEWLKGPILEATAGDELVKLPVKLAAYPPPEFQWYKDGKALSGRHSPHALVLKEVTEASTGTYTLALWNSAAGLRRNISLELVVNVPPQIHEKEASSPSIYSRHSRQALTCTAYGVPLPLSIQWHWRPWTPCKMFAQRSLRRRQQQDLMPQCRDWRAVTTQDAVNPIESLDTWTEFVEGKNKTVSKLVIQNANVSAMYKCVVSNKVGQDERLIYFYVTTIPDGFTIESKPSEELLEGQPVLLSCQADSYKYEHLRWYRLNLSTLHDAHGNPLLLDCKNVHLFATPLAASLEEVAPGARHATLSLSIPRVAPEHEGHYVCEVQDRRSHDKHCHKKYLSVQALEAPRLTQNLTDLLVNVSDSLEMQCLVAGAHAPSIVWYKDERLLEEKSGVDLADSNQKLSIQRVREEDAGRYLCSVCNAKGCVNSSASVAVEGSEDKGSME

[3] = target: T3, VEGFR3 (Flt-4) IgD6-7 (human, UniProt P35916)
T3 chain: T2 chain

[4] = target: T4, VEGFR2 (KDR) IgD4-7 (human, UniProt P35968)
T4 chain: T1 chain

Row | Binder | Kd [1] [nM] | Kd [2] [nM] | Kd [3] [nM] | Kd [4] [nM]
1 | B1 | 1.5 | 1.1 | 4.8 | 0.46
2 | B2 | 1.13 | 3.3 | 13 | 2.18
